# Target: enriched paired helical filament tau protein (ePHF) (human, phosphorylated residues of pathological tau, sites not stated)
# Assay: direct ELISA
# Method: Variable domain nucleic acid sequences from antibodies obtained from immunizations described above were used to prepare recombinant mouse IgG antibodies. These candidate antibodies were analyzed for binding to ePHF and specificity for ePHF over wild type tau by direct ELISA.
# For direct ePHF and wildtype tau ELISA, plates were first coated with ePHF or wild type tau. Antigen solutions were prepared in PBS and 50 μL were pipetted into each well. Plates were covered and incubated for one hour at 37° C. or overnight at 4° C. Plates were then washed and blocked by addition of 150 μl of blocking buffer to each well and incubated one hour at room temperature. Plates were then washed before addition of serially diluted candidate antibody samples prepared in blocking buffer. Detection of candidate antibody binding was carried out by washing plates and adding a solution of enzyme-labeled secondary antibody in blocking buffer to each well. Secondary antibody binding was detected by addition of substrate and spectrophotometric analysis of resulting reaction product.
row,EC50,Binder
1,0.861 nM,"V0006 (antibody, V domains shown) VH: QVQLKESGPGLVAPSQSLSITCTVSGFSLTSYAISWVRQPPGKSLEWLGVIWTGGGSKYNSALKSRLSISKDNSKSQVFLKMNSLQTDDTARYYCVRNYDYYRYEGFDYWGQGTLVTVSA VL: DIKMTQSPSSLSASLGEGVSLTCRASQDIGSSLHWLQQKPDGTIKRLIYGTSTLDSDVPKRFSGSRSGSDYSLTISSLESEDFVDYFCLQYATSPPTFGGGTKLEIK"
2,0.581 nM,"V0043 (antibody, V domains shown) VH: DVQLQESGPGLVKPSQSLSLTCSVSGYSITTNYFWNWIRLFPGNKLEWMGYISYDGSNVYNPSLKNRISITRDTSKNQFFLKLNSLTTEDTATYYCARGPPSAYWGQGTLVTVSA VL: SIVMTQSPKFLPVSAGDRVTMTCKASQSVGNNVAWYQQKPGQSPKLLIYYASNRYTGVPDRFTGSGSGTDFTLTISSVQVEDLVVYFCQQHYSSPLTFGAGTKLELK"
3,0.869 nM,"V0042 (antibody, V domains shown) VH: DVQLQESGPGLVKPSQSLSLTCSVTGYSITTNYYWNWIRQFPGNKLEWMGYITYDGIKTYNPSLNNRISITRDTSKNQFFLKLNSVTTEDTATYYCARGPGLDYWGQGTTLTVSS VL: SIVMTQTPKFLPVSAGDRVTMTCKASQSVGNNVAWYQQKPGQSPKLLIYYASNRYTGVPDRFTASGSGTDFTFTISSVQVEDLAVYFCQQHYSSPYTFGSGTNLEIK"
4,0.618 nM,"V0045 (antibody, V domains shown) VH: DVQLQESGPGLVKPSQSLSLTCSVTGYSITTNYYWNWIRQFPGNKLEWMGYISYDGSSNYNPSLKNRISITRDTSKNQFFLNLNSVTTEDTATYYCARDLLGYWGQGTTLTVSS VL: SIVMTQTPKFLPVSAGDRVTMTCKASQSLGNNVAWYQQKPGQSPKLLIYYASNRYTGVPDRFTGSGSGTDFTFTISSVQVEDLAVYFCQQHYSSPRTFGGGTKLEIR"
5,0.237 nM,"V2001 (antibody, V domains shown) VH: DVQLVESGGGLVQPGGSRKLSCAASGFIFSSFGMHWVRQAPEKGLEWVAYISSGSATIYYADTVKGRFTISRDNPKNTLFLQMTSLRSEDTAMYYCARKRGSGNYVSAMDFWGQGTSVTVSS VL: DVLMTQTPLSLPVSLGDQASISCRSGQSIVHSNGNTYLEWYLQKPGQSPKLLIYKVSNRFSGVPDRFSGSGSGTDFTLKISRVEAEDLGVYYCFQGSHVPWTFGGGTKLEIK"
6,2.83 nM,"V0003 (antibody, V domains shown) VH: QVQLQQPGTELVKPGASVKLSCKASGYTFTKNWLHWVKQRPGQGLEWIGYINPSNGATNYNERFKSKASLTVDKSSTTAYMQLSSLTSEDSAVYYCARSGGWLLPYYAMDYWGHGTSVTVSS VL: EIVLIQSPALMAASPGEKVTITCSVSSSISSSNLHWYQQQSGTSPKPWILATSNLASGVPVRFSGSGSGTSYSLTISSMEAEDAATYYCQQWSSYPFTFGTGTKLEIK"
7,0.48 nM,"V1005 (antibody, V domains shown) VH: QVTLKESGPGKLQPSQTLSLTCSFSGFSLSTSGMGVSWIRQPSGKGLEWLAHIYWDDDKRYNPSLKSRLTISKDTSRNQVFLKITSVDTADTATYYCARGWLRRKDYSAMDYWGQGTSVTVSS VL: NIVMTQSPKSMSMSVGERVTLSCKASEHVGPYVSWYQHKAEQSPKLLIYGASNRYTGVPDRFTGSGSATDFTLIISSVQAEDLADYHCGQTYSYPLTFGAGTKLELK"
8,0.74 nM,"V0007 (antibody, V domains shown) VH: EVQLVESGGDLVKPGGSLKLSCAASGFTFSSYGLSWVRQTPDKRLEWVATISSGGDYTYYPDSVKGRFTISRDNAKNILYLHMSSLKSEDTAMYYCAREDGYYVGTMDYWGQGTSVTVSS VL: DIQMTQSPSSLSASLGERVSLTCRASQDIGSSLNWLQQEPDGTFKRLIYATSSLDSGVPKRFSGSRSGSDYSLTISSLESEDFVDYYCLQYDSLPLTFGAGTKLELK"
9,6.43 nM,"V0036 (antibody, V domains shown) VH: QVTLKESGPGILQPSQTLNLTCSFSGFSLSTSGMGVSWIRQPSGKGLEWLAHIYWDDDKRYNPSLKSRLTISKDTSRNQVFLKITSVDTADTATYYCVRRSRRGNYDYWGQGTTLTVSS VL: not shown"
10,1.54 nM,"V0008 (antibody, V domains shown) VH: QVQLKESGPGLVAPSQSLSITCTVSGFSLTTYAISWVRQPPGKGLEWLGVIWTGGGTDFNSALKSRLSISKDNSKSQVFLKMISLQTNDTARYYCARKGGSYYSTTYVGLYAMDYWGQGTSVTVSS VL: DIQMTQTTSSLSASLGDRVTISCRASQDISNYLNWYQQKPAGTVKLLIYYTSRLHSGVPSRFSGSGSGTDYSLTISNLEQEDVATYFCQQGNTLPWTFGGGSKLEIK"
11,0.098 nM,"V0025 (antibody, V domains shown) VH: QVQLQQPGTELVKPGASVKLSCKASGFTFTRFWMHWVKQRPGQGLEWIGNINPNNGETNYNEKFKIKAALTVDKSSTTAYMQLSSLTSEDSAVYSCARGTGTGAMDYWGQGTSVTVSS VL: DVVMTQTPLSLPVSLGDQASISCRSSQSLVHSTGNTYLYWYLQKPGQSPKLLIYRVSTRFSGVPDRFSGSGSGTDFTLKINRVEAEDLGVYFCFQGTHVPRTFGGGTKLEIK"
12,0.234 nM,"V1003 (antibody, V domains shown) VH: EVKLVESGGGLVKPGGSLKLSCAASGFTFSSYAMSWVRQIPEKRLEWVAAINSNGGSTYYPDTVKDRFTISRDNAKNTLYLQMSSLRSEDTALYYCVRQGWDAWFAYWGQGTLVAVSA VL: DIKMTQSPSSMYASLGERVTITCKASQDINSYLSWFQQKPGKSPKTLIYRANRLVDGVPSRFSGSGSGQDYSLTISSLEYEDMGIYYCLQYDEFPLTFGAGTKLELK"
13,0.401 nM,"V1001 (antibody, V domains shown) VH: EVQLVESGGGLVKPGGSLKLSCAASGFTFSSYAMSWVRQTPEKRLEWVAAINSNGGRTYYPDTVKDRFTISRDNAKNTLYLQMSSLRSEDTALYYCARQGHSNYYEAWFAYWGQGTLVTVSA VL: DIKMTQSPSSMYASLGERLSITCKASQDINSYLNWFQQKPGKSPKTLIYRANRLVDGVPSRFSGSGSGQDYSLTISSLEDEDMGIYYCLQYDEFPLTFGAGTKLELR"
14,0.069 nM,"V1004 (antibody, V domains shown) VH: EVQLVESGGGLVKPGGSLKLSCAASGFTFSSYAMSWVRQTPEKRLEWVAAINSNGGSIYYPDTVKDRFTISRDNAKNTLYLQMISLRSEDTALYYCARQGGSSWFVYWGQGTLVTVSA VL: DIKMIQSPSSMYASLGERVTITCKASQDINSYLSWFQQKPGKSPKTLIYRANRLVDGVPSRFSGSGSGQDYSLTISRLEYEDVGLYYCQQYDEFPLTFGAGTKLELK"
15,0.126 nM,"V0001 (antibody, V domains shown) VH: EVQLVESGGGLVQPKGSLKLSCAASGFTFNTYAMYWVRQAPGKGLEWVARIRSKSSNYATYYADSVKDRFTISRDDSQSKLYLQMNNLKTEDTAMYYCVREGLWYYFDYWGQGTTLTVSS VL: DIQMTQITSSLSASLGDRVTISCRASQDISNYLNWYQQKPDGTVKLLIYSTSRLHSGVPSRFSGSGSGTDYSLTISNLEPEDIATYYCQQYSKLLPTFGSGTKLEIK"
16,0.053 nM,"V0049 (antibody, V domains shown) VH: QVTLKESGPGILQSSQTLSLTCSFSGFSLSTSGMGVSWIRQPSGKGLEWLAHIYWDDDKRYNPSLKSRLKISKDTSRNQVFLKITSVDTADTATYYCARRGYYSNGNYFDYWGQGTTLTVSS VL: QIVLTQSPTTMAASPGEKITITCSASSSISSTYLHWYQQKPGFSPKLLIYRTSNLASGVPARFSGSGSGTSYSLTIGTMEAEDVATYYCQQGSSIPRYTFGGGTKLEIK"
